Experimental data taken from publication PMC6877644.

Legend:
[1] = biological target: T1, JASPer (Drosophila melanogaster) (UniProt Q9VAA9); test: nucleosome library pull-down with sequencing; parameters: dose or concentration left out as unconfirmed; settings: H3K36me3; scale: fold enrichment over unmodified nucleosome
T1 sequence: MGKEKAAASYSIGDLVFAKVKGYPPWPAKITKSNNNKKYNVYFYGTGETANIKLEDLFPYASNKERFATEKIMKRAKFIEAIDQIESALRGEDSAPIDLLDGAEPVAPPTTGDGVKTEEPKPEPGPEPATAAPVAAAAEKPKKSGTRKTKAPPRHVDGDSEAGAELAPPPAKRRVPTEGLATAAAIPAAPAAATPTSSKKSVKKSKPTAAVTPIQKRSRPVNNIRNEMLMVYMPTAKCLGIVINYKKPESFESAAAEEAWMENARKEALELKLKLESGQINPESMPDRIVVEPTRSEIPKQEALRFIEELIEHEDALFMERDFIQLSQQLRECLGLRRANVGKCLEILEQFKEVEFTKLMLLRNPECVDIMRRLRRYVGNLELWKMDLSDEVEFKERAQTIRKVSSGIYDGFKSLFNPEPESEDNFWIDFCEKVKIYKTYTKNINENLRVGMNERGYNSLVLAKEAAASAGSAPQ

[2] = biological target: JASPer (untagged, in JJ-complex);JIL-1 (Drosophila melanogaster;Drosophila melanogaster) (UniProt Q9V3I5); test: nucleosome library pull-down with sequencing; settings: H3K36me3; DNA EMSA: 50 mM HEPES pH 7.6, 50 mM NaCl, 10% glycerol, 2 mM MgCl2, 10% BSA, RT 10 min; RNA EMSA: 25 mM HEPES pH 7.6, 100 mM KCl, 3 mM MgCl2, 1 mM DTT, 5% …; scale: fold enrichment over unmodified nucleosome
[3] = biological target: JASPer-FLAG (D. melanogaster); test: pull-down; 1.5 pmol FLAG-tagged JASPer or JJ-complex pre-coupled to FLAG-M2 beads, incubated with 1.38 pmol library of 115 DNA-barcoded nucleosome types (12 fmol each) in 200 µL 20 mM Tris/Cl pH 7.5, 50 mM NaCl, 5 mM EDTA, 0.1% TWEEN 20, 4 h at 4 °C; read out by sequencing of the barcodes, relative to the unmodified nucleosome set to 1
[4] = biological target: JASPer-JIL-1 (JJ)-complex (FLAG-JIL-1 and untagged JASPer) (D. melanogaster) (UniProt Q9V3I5); test: as above
Chain of JASPer-JIL-1 (JJ)-complex (FLAG-JIL-1 and untagged JASPer) (D. melanogaster) (Q9V3I5 whole entry, one chain of several): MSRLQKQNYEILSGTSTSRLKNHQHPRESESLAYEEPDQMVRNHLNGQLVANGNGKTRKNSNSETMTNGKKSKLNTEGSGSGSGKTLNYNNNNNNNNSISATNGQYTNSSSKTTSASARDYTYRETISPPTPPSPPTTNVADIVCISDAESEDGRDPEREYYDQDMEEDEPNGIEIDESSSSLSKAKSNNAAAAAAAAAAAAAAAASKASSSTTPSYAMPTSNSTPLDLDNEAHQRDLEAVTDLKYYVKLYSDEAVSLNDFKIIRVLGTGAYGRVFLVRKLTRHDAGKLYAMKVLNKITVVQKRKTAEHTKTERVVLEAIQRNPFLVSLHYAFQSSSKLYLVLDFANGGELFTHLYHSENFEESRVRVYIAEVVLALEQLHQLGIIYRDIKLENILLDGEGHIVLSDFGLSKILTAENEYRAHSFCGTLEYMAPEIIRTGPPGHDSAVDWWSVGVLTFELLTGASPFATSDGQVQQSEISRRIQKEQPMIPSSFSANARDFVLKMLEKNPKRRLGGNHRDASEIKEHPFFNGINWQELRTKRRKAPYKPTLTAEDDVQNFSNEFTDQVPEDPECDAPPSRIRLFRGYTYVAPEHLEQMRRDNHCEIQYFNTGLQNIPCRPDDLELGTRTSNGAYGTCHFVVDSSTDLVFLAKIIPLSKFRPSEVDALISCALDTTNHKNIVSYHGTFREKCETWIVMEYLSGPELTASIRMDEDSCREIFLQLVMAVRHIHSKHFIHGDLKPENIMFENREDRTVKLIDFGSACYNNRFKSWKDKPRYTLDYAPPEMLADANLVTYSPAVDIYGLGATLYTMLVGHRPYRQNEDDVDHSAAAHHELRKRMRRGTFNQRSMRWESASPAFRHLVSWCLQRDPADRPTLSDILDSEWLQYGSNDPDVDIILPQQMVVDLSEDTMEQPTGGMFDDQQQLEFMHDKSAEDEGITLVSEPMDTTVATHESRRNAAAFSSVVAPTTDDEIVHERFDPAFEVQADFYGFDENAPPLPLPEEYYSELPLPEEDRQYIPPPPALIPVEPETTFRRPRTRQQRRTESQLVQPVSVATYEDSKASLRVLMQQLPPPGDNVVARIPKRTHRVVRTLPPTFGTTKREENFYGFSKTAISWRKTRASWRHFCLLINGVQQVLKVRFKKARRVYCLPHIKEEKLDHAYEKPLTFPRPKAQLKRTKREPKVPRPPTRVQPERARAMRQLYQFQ

Chain of JASPer (untagged, in JJ-complex);JIL-1 (Drosophila melanogaster;Drosophila melanogaster) (Q9V3I5 whole entry, looked up, one chain of several): as the sequence (Q9V3I5 whole entry, one chain of several) above

Row | fold enrichment relative to the unmodified nucleosome [3] [fold] | fold enrichment over the unmodified nucleosome [4] [fold] | Substance | binding signal [1] | binding signal [2]
1 | – | – | H3K36me3 mononucleosome (barcoded library) | 40 | 70
2 | 40 | 70 | nucleosome bearing the single H3K36me3 modification (complex) | – | –
